Ten molecules from patent publication US20130058934A1 (Novartis, published 2013) can be followed below.

Substitutions are numbered along the chain they refer to.

In assay [1] the target is T1, human LRP6 (human, UniProt O75581 20-1613). As to the kind of experiment: cell-based or functional assay.
The target in assay [2] is T1, human LRP6. As to the kind of experiment: FACS on HEK293T/17 cells, endogenous human LRP6. The method, then:
(§1) Cross-species reactivity to murine and cynomologus LRP6 was determined on cells by FACS analysis. FACS staining was performed essentially as described above. Human U266 cells (no expression of LRP6) were used as a negative control.
(§2) To show cross-reactivity, cells expressing endogenous LRP6 of human (HEK293T/17) and mouse origin (NIH 3T3), or transiently transfected HEK293/T17 cells expressing cynomolgus LRP6, were treated and subjected to flow cytometry as described above.

The target of a further assay is T2, mouse LRP6 (mouse, UniProt O88572 20-1613).
T2 construct: whole, on cells; also called murine LRP6; endogenous LRP6 on NIH 3T3 cells
As to the kind of experiment: FACS on NIH 3T3 cells, endogenous mouse LRP6. The procedure:
as §1, §2

Another assay addresses T3, LRP6 PD3/4 (human, UniProt O75581 631-1246).
T3 construct: range 631-1246; Recombinant soluble fragment; also called Propeller Domains 3-4 of LRP6; recombinant LRP6 PD3/4
T3 sequence (looked up): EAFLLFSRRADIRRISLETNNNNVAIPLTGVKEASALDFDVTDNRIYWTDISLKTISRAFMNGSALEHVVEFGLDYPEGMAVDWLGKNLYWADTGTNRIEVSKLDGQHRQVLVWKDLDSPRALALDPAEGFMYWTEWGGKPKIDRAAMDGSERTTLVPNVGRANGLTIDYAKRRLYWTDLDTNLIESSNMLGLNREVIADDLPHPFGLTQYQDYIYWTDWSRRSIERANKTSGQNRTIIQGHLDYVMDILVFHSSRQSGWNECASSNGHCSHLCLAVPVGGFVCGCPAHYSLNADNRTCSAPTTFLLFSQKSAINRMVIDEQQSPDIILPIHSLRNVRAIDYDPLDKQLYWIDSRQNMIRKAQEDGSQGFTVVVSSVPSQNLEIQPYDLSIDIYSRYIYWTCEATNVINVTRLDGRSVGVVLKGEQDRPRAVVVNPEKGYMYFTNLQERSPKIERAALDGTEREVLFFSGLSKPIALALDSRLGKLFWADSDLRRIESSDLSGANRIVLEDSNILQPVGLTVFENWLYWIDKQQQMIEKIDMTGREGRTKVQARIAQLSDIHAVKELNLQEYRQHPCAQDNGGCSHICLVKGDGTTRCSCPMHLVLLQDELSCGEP
Kind of assay: Biacore T-100 SPR, antibody captured by anti-human IgG Fc on a CM4 chip, PD3/4 injected; N = 4. The method, then:
The carboxymethyl dextran surface was activated with a 7 min injection of a 1:1 ratio of 0.4 M EDC (1-Ethyl-3-[3-dimethylaminopropyl]carbodiimide hydrochloride) and 0.1 M NHS(N-hydroxysuccinimide). […] PD1/2 and PD3/4 were prepared as two fold concentration series starting at 50 nM, and injected at 30 μl/min for 1 min. […] The surfaces were then regenerated two times with 10 mM glycine (pH 2.2). […] PD3/4 at a saturating concentration of 100 nM was then flowed over the surface at a flow rate of 30 μl/min for 30 min. A saturating concentration of 100 nM PD1/2 was injected immediately after the PD3/4. The dissociation constant (KD), association (kₒₙ), and dissociation (koff) rates were calculated from the baseline subtracted corrected binding curves using the BIAevaluation software (GE Healthcare).
In general terms: SPR reads the build-up and loss of mass on a sensor chip optically.

In assay [3] the target is T4, LRP6-Fc (R&D Systems, catalog No: 1505-LR) (human, UniProt O75581 20-1370).
T4 construct: Purchased reagent; also called LRP6 protein; 360 KD homodimer antigen LRP6-Fc; not shown: Fc part of the purchased fusion
T4 sequence (looked up): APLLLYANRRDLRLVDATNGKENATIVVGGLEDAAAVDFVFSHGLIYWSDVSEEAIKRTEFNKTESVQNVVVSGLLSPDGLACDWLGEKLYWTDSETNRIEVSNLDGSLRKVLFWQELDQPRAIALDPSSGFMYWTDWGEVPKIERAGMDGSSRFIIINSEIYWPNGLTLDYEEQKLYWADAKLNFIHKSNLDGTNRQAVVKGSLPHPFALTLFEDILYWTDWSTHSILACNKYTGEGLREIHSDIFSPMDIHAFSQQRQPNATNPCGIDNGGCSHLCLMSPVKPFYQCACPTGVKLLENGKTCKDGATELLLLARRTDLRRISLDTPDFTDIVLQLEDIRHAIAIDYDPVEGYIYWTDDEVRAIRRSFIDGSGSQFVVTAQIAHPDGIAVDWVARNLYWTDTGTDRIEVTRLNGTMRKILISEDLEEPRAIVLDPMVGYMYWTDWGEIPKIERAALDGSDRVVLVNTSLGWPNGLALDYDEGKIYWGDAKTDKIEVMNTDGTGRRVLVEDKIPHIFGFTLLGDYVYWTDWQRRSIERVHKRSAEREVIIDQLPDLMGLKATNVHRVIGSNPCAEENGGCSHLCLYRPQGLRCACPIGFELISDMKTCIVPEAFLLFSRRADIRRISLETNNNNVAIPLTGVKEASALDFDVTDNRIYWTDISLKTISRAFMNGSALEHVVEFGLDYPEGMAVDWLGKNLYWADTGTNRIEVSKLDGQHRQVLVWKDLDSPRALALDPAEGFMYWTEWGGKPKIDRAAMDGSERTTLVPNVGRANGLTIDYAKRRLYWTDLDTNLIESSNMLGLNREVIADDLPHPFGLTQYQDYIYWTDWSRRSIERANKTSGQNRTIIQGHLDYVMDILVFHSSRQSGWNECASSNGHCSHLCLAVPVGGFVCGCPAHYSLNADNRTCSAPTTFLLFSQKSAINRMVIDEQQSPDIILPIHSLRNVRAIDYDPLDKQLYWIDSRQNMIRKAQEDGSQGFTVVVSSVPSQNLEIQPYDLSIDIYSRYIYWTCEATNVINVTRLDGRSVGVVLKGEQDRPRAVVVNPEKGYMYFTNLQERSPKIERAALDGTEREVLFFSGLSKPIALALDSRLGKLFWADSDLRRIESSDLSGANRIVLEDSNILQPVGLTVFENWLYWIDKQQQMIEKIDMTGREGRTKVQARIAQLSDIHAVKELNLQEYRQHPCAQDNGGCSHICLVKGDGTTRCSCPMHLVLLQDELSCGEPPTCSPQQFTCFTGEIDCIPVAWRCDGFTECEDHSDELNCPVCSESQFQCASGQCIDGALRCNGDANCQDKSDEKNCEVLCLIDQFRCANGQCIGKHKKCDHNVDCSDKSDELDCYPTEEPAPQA
As to the kind of experiment: ELISA on coated LRP6-Fc, detection with pentaHis-HRP. The method, then: Binding EC₅₀ of scFvs against LRP6 protein was measured by ELISA. Maxisorp plate was coated with LRP6-Fc (R&D Systems, catalog No: 1505-LR) at 3 μg/ml at 4° C. overnight. The plate was blocked with 50 μl of 2% BSA for one hour, and washed five times with the wash solution. The samples were diluted with 1% BSA accordingly. The plate was incubated at RT for 1 h, and washed for 3 times. Detection was done by adding 50 μl pentaHis-HRP (Qiagen Mat. No. 1014992) at 1:2000 dilution in 1% BSA, incubated at RT for 1 h, and washed 3 times. 50 μl of substrate reagent A plus B (R&D systems) was added, then incubated for 5-20 min depending on the color. The reaction was stopped by adding 25 μl of the stop solution, followed by plate reading at 450 nm.
Affinity analysis ELISA EC₅₀ was carried out for both scFv08168 and scFv06475 wild type and variants.
On the technique in general: ELISA stands for enzyme-linked immunosorbent assay.

T2 sequence (O88572 20-1613): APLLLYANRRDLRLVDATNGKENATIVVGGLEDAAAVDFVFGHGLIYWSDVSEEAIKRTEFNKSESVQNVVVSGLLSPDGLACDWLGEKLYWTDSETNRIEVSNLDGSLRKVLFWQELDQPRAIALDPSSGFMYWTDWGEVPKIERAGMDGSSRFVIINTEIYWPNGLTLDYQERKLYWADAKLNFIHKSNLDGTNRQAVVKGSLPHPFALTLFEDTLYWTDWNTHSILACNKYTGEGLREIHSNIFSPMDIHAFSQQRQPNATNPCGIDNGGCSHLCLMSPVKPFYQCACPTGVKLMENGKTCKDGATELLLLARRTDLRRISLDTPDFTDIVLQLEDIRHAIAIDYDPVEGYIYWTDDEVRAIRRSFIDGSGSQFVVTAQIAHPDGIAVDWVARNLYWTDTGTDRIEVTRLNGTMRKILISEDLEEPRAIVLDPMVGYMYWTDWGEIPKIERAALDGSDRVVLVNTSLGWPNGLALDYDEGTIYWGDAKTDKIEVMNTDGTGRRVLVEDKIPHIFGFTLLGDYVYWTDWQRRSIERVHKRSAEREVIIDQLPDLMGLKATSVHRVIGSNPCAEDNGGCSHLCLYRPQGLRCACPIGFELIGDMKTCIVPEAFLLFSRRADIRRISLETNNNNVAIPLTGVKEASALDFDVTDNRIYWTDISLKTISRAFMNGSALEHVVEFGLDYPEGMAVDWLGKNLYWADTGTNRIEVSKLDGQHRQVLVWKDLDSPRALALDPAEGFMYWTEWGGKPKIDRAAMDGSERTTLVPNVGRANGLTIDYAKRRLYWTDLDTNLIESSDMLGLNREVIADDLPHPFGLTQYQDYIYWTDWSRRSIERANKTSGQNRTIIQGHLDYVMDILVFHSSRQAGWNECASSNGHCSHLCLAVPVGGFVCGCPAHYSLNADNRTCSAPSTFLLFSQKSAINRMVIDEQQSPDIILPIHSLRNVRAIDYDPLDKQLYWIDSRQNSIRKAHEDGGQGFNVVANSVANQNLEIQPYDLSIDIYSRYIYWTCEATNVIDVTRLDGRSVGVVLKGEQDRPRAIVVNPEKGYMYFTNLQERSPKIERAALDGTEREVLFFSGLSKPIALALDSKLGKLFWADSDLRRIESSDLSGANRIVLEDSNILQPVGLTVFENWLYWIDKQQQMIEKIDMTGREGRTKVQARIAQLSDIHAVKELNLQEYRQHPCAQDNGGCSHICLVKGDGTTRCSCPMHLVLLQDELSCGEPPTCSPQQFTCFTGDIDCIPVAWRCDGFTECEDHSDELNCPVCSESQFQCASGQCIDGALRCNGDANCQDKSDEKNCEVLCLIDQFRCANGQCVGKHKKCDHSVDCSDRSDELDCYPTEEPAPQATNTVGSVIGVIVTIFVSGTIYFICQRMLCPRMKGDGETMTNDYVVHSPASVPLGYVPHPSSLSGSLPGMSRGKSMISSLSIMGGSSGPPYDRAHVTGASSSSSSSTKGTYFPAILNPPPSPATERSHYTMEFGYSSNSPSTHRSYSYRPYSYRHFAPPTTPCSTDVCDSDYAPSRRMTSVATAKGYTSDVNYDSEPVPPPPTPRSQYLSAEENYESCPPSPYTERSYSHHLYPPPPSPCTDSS

B1: scFv MOR06475 (scFv, V domains shown)
VH: QVQLKESGPALVKPTQTLTLTCTFSGFSLSNRGGGVGWIRQPPGKALEWLAWIDWDDDKSYSTSLKTRLTISKDTSKNQVVLTMTNMDPVDTATYYCARMHLPLVFDSWGQGTLVTVSS
VL: DIVLTQSPATLSLSPGERATLSCRASQFIGSRYLAWYQQKPGQAPRLLIYGASNRATGVPARFSGSGSGTDFTLTISSLEPEDFATYYCQQYYDYPQTFGQGTKVEIK
Turning to B1, in the assay with human LRP6 [1], the “IC50 by STF assay for Wnt3a inhibition” value turned out to be 1.48 nM.

B2: MOR08193 Fab (Fab, V domains shown)
VH: B1 VH
VL: DIVLTQSPATLSLSPGERATLSCRASQFIGSRYLAWYQQKPGQAPRLLIYGASNRATGVPARFSGSGSGTDFTLTISSLEPEDFAVYYCQQYWSIPITFGQGTKVEIKR
notes: also called Propeller 3 anti-LRP6 Fab MOR08193
The term EC50 denotes the concentration at which the effect is half-maximal. Read a low EC50 as higher potency in that assay. As to B2, the EC50 in the assay with human LRP6 [2] was found to be 0.36 nM; in the assay with mouse LRP6 it was 0.08 nM.

B3: MOR06475 IgG (antibody, V domains shown)
VH: B1 VH
VL: B2 VL with V86T, W93Y, S94D, I95Y, I97Q
notes: also called MOR6475; MOR6475 (propeller 3 antibody)
The term Kd denotes the free concentration of one partner at which half of the binding sites on the other are occupied at equilibrium, for simple one-to-one binding. A low value points to higher affinity. The koff is a measure of how fast the partners let go of each other. Usually kon stands for the rate constant with which the complex forms. Read a high kon as fast association. In the assay with LRP6 PD3/4, B3 yielded a Kd of 1.13 nM, a koff of 0.000217 s⁻¹ and a kon of 201000 M⁻¹ s⁻¹.

B4: scFv08168-D4 (scFv, not shown: small tags and cut ends)
scFv: QVQLVESGGGLVQPGGSLRLSCAASGFTFSDYVMNWVRQAPGKGLEWVSSISWSGVNTHYADSVKGRFTISRDNSKNTLYLQMNSLRAEDTAVYYCARLGATANNIRYKFMDVWGQGTLVTVSSGGGGSGGGGSGGGGSDIELTQPPSVSVAPGQTARISCSGDSLRNKVYWYQQKPGQAPVLVIYKNNRPSGIPERFSGSNSGNTATLTISGTQAEDEADYYCQSYDGQKSLVFGGGTKLTVL
Regarding B4, the “IC50 by STF assay for Wnt1 inhibition” value in the assay with human LRP6 [1] worked out at 5.56 nM.

B5: scFv08168-D2 (scFv, not shown: small tags and cut ends)
scFv: B4 scFv with M34F, S49A, S50G
With B5, the “IC50 by STF assay for Wnt1 inhibition” value with human LRP6 [1] amounted to 2.59 nM.

B6: MOR08473 Fab (Fab, V domains shown)
VH: QVQLVESGGGLVQPGGSLRLSCAASGFTFSSYGMSWVRQAPGKGLEWVSNISNDGHYTYYADSVKGRFTISRDNSKNTLYLQMNSLRAEDTAVYYCARFQASYLDIMDYWGQGTLVTVSS
VL: DIELTQPPSVSVAPGQSITISCSGDNIGSKYVHWYQQKPGQAPVLVIYNDSNRPSGIPERFSGSNSGNTATLTISGTQAEDEADYYCQAWGDNGTRVFGGGTKLTVLG
notes: also called Propeller 3 anti-LRP6 Fab MOR08473
For the molecule B6, the EC50 worked out at 0.74 nM with human LRP6 [2] and 0.46 nM with mouse LRP6.

B7: scFv08168 VH:I34M (scFv, V domains shown)
VH: QVQLVESGGGLVQPGGSLRLSCAASGFTFSDYVMNWVRQAPGKGLEWVSGISWSGVNTHYADSVKGRFTISRDNSKNTLYLQMNSLRAEDTAVYYCARLGATANNIRYKFMDVWGQGTLVTVSS
VL: DIELTQPPSVSVAPGQTARISCSGDSLRNKVYWYQQKPGQAPVLVIYKNNRPSGIPERFSGSNSGNTATLTISGTQAEDEADYYCQSYDGQKSLVFGGGTKLTVL
notes: Point mutant of scFv08168 (His tag)
In the case of B7, the EC50 in assay [3] is 0.98 nM.

B8: MOR08168 Fab (Fab, V domains shown)
VH: B7 VH with M34I
VL: B7 VL
notes: HuCAL Fab expressed in E. coli from pMORPH X9/X11 FH vectors and purified by Ni-NTA; also called Propeller 1 anti-LRP6 Fab MOR08168
Take B8: the values for the 50% effective concentration (EC50) in the assay with human LRP6 [2] and with mouse LRP6 were 0.28 nM and 0.12 nM, respectively.

B9: MOR06706 Fab (Fab, V domains shown)
VH: QVQLVESGGGLVQPGGSLRLSCAASGFTFSDYAIHWVRQAPGKGLEWVSGISYSGSSTHYADSVKGRFTISRDNSKNTLYLQMNSLRAEDTAVYYCARGSHGNIMAKRYFDFWGQGTLVTVSS
VL: DIELTQPPSVSVAPGQTARISCSGDNIRKKYVYWYQQKPGQAPVLVIYEDSKRPSGIPERFSGSNSGNTATLTISGTQAEDEADYYCSTADSGINNGVFGGGTKLTVL
notes: also called Propeller 1 anti-LRP6 Fab MOR06706
Regarding B9, the EC50 with human LRP6 [2] stood at 0.14 nM.

B10: MOR08545 Fab (Fab, V domains shown)
VH: QVQLVESGGGLVQPGGSLRLSCAASGFTFSVNGMHWVRQAPGKGLEWVSVIDGMGHTYYADSVKGRFTISRDNSKNTLYLQMNSLRAEDTAVYYCARYDYIKYGAFDPWGQGTLVTVSS
VL: DIELTQPPSVSVAPGQTARISCSGDNIGSKYVHWYQQKPGQAPVLVIYGDSNRPSGIPERFSGSNSGNTATLTISGTQAEDEADYYCTRTSTPISGVFGGGTKLTVLG
notes: also called Propeller 1 anti-LRP6 Fab MOR08545
For B10, the EC50 in the assay with human LRP6 [2] stood at 0.09 nM; in the assay with mouse LRP6, 0.06 nM.
